# Results from PMC5839066.
# Target: RFP-p62 (UniProt Q13501)
# Test: co-IP; COS-7 cells cotransfected with HTT fragment and RFP-p62, 100 nM bafilomycin for 4 h; lysates in SDP buffer; p62 immunoprecipitated (anti-p62 MBL PM045) overnight at 4 °C; co-precipitated HTT blotted and normalised to input
substance,measurement,value
HTT aa1-1212 138Q-C6R (domain or fragment),fold binding relative to cleavable mHTT,2 fold
